The values that follow come from patent publication US20240368668A1, “SUBSTRATES AND BIOMARKERS OF ADAMTS7” (The Broad Institute, Inc., priority 2021, published 2024).

Square brackets hold non-standard residues; d marks the D form. Ends that are not written are not given here. deamidated = deamidated asparagine; Met(O) = CS(=O)CC[C@H](N)C(=O)O

The experiment has as its target T1, mouse ADAMTS7 (Mus musculus, UniProt Q68SA9, E373Q).
T1 construct: Full-length mouse Adamts7 1-1857 (Uniprot Q68SA9, WT or E373Q catalytic mutant); expressed in transfected cells; host or cells: Human Coronary Artery Smooth Muscle Cells (HCA-SMC, Lonza), adenovirus 50 MOI
T1 sequence (Q68SA9 221-1657 E373Q): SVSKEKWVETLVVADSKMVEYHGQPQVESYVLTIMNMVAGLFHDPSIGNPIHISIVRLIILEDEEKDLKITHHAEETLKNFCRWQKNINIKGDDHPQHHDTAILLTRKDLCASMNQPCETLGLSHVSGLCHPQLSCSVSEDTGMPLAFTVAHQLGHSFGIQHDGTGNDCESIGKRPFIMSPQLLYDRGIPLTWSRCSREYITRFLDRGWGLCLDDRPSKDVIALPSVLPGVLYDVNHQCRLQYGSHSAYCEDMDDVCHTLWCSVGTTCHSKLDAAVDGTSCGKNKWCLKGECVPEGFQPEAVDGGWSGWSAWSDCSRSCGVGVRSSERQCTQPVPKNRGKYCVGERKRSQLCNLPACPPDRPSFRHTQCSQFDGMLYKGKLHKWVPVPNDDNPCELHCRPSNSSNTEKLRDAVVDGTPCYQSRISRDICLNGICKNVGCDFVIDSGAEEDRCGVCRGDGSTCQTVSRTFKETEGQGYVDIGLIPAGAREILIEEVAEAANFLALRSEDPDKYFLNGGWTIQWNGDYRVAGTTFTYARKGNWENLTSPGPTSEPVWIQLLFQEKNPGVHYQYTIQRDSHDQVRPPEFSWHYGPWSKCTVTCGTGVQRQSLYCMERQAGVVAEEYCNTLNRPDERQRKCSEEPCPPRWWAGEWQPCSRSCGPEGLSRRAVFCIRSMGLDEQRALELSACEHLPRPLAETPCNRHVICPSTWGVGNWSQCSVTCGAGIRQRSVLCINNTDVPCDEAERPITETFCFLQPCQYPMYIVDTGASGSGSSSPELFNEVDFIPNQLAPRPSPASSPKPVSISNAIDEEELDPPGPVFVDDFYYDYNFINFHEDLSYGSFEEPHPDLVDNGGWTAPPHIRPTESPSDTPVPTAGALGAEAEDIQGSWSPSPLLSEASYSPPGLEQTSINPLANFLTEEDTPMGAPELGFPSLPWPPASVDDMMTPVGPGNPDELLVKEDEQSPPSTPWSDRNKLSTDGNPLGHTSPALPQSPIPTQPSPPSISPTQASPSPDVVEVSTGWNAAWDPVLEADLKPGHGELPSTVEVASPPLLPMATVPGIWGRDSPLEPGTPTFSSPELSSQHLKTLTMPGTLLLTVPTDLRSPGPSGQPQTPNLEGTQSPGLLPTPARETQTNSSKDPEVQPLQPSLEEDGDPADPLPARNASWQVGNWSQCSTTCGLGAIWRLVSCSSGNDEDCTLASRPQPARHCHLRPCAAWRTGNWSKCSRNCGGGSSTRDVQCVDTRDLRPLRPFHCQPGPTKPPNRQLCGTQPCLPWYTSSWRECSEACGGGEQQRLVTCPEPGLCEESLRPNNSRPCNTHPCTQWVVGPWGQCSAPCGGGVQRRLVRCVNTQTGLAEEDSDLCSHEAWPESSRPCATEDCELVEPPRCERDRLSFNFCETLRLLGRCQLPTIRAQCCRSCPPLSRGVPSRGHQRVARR
Nature of the experiment: TMT10 TAILS N-terminomics, SMC1 experiment (Ad-mADAMTS7 WT vs EQ vs Luc, technical replicates, trypsin digest). The conditions noted are these: TAILS neo-N-terminal peptide abundance; log fold change, Ad-mADAMTS7 EQ over Luc. It counts as cell-based. Summed up:
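Full-length mouse ADAMTS7 (WT or E373Q mutant, C-terminal 3xFLAG) or luciferase was transduced via adenovirus, 50 MOI, into HCA-SMC (SMC1, SMC2) or HUVEC. SMC1: pooled media, technical triplicates 400 ug; SMC2: process triplicates 300 ug; HUVEC: process triplicates 200 ug, bFGF2 10 ng/ml.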
Turning to “CDC37_43 (FQKEKEELDR; listed as Homo sapiens)”, the logFC.mEQ.over.Luc was −0.12. As for “CDH11_467 (HQEAKVPVAIR; listed as Homo sapiens)”, the logFC.mEQ.over.Luc is reported as −0.03.

The substance “CLEC11A_50 (HLQEALGLPAGR; listed as Homo sapiens)” came in with a logFC.mEQ.over.Luc of −0.34. Regarding “COL1A2_80 (QYDGKGVGLGPGPMGLMGPR; listed as Homo sapiens)”, the logFC.mEQ.over.Luc was found to be 0.19. Under “COL1A2_91 (GPMGLMGPR; listed as Homo sapiens)” stands −0.07; under “COL1A2_113 (FQGPAGEPGEPGQTGPAGAR; listed as Homo sapiens)”, −0.61. Under “COL1A2_270 (VGNAGPAGPAGPR; listed as Homo sapiens)” stands 0.70; under “COL1A2_305 (LTGAKGAAGLPGVAGAPGLPGPR; listed as Homo sapiens)”, −0.16; under “COL1A2_389 (SAGPPGPPGLR; listed as Homo sapiens)”, 0.39. For “COL1A2_425 (ASGPAGVR; listed as Homo sapiens)” the value was −0.17.

In the case of “COL1A2_630 (VGTAGPSGPSGLPGER; listed as Homo sapiens)”, the logFC.mEQ.over.Luc was −0.27. For “COL1A2_681 (VGAPGPAGATGDR; listed as Homo sapiens)” the value was −0.34. For the substance “COL1A2_731 (AAGQPGAKGER; listed as Homo sapiens)”, the logFC.mEQ.over.Luc was −0.18.

Take “COL1A2_866 (LLGAPGILGLPGSR; listed as Homo sapiens)”: the logFC.mEQ.over.Luc is on record as −0.24. Under “COL1A2_960 (AGAPGPHGPVGPAGKHGNR; listed as Homo sapiens)” stands −0.35; under “COL1A2_1028 (LQGLPGIAGHHGDQGAPGSVGPAGPR; listed as Homo sapiens)”, −0.28; under “COL1A2_1037 (HHGDQGAPGSVGPAGPR; listed as Homo sapiens)”, −0.79. For “COL1A2_1127 (SLRPKDYEVDATLKSLNNQIETLLTPEGSR; listed as Homo sapiens)” the value was −0.45. Under “COL4A2_71 (YNGPPGLQGFPGLQGR; listed as Homo sapiens)” stands −0.37; under “COL4A2_172 (YALPKEER; listed as Homo sapiens)”, 0.76. The substance “COL5A1_544 (SQAQAILQQAR; listed as Homo sapiens)” yielded a logFC.mEQ.over.Luc of −0.21.

The substance “COL8A1_90 (MKEIQPAPR; listed as Homo sapiens)” had a logFC.mEQ.over.Luc of −0.25. For “COL18A1_1505 (LQPPVVQLHDSNPYPR; listed as Homo sapiens)” the value was −0.01. For “ECM1_43 (YAAPPSPPLSR; listed as Homo sapiens)” the value was −0.04. For “LTBP2_1602 (EAGVHFR; listed as Homo sapiens)”, the logFC.mEQ.over.Luc was determined as 0.64. In the case of “MAN2A1_51 (LQEKIDHLER; listed as Homo sapiens)”, the logFC.mEQ.over.Luc came to 0.18. The substance “MAP1B_1065 (LTTPTKQLGAQSPGR; listed as Homo sapiens)” returned a logFC.mEQ.over.Luc of −0.20.

The substance “MAP4_815 (AVASTGPSSR; listed as Homo sapiens)” showed a logFC.mEQ.over.Luc of 0.10. Under “MAP4_816 (VASTGPSSR; listed as Homo sapiens)” stands −0.18; under “MGAT4B_28 (LSGQKGDVVDVYQR; listed as Homo sapiens)”, −0.23; under “MMP1_24 (LETQEQDVDLVQKYLEKYYNLKN(deamidated)DGR; listed as Homo sapiens)”, −0.08.

As to “NID2_291 (HSSVPLGR; listed as Homo sapiens)”, the logFC.mEQ.over.Luc was −0.08.

Turning to “NID2_374 (VGGPDLKGQVEPWDER; listed as Homo sapiens)”, the logFC.mEQ.over.Luc is on record as −0.14. For “NID2_467 (LEDNIGSNTEVFTYNAANKETCEHNHR; listed as Homo sapiens)” the value was −0.09. For “NID2_951 (YAYPGAR; listed as Homo sapiens)” the value was −0.58; for “NUCB1_228 (LKEVWEELDGLDPNR; listed as Homo sapiens)”, 0.07; for “NUCB1_317 (FLASTQR; listed as Homo sapiens)”, −0.11.

In turn, “NUCB1_389 (LQQAVLHMEQR; listed as Homo sapiens)” had a logFC.mEQ.over.Luc of 0.15.

Substance “OS9_54 ([code q]SQSSDVVIVSSKYKQR; also: modified N-terminal Gln; listed as Homo sapiens)” returned a logFC.mEQ.over.Luc of −0.14. On to “OS9_55 (SQSSDVVIVSSKYKQR; listed as Homo sapiens)”, for which the logFC.mEQ.over.Luc is −0.06.

In turn, “PAPPA_41 (AAGPATCATR; listed as Homo sapiens)” gave a logFC.mEQ.over.Luc of 0.35. Under “PDLIM4_104 (IDPEIQDGSPTTSR; listed as Homo sapiens)” stands −0.13; under “POLR3G_88 (LFCSHWSHIPGFK; listed as Homo sapiens)”, 0.00; under “POSTN_413 (FSDDTLSMDQR; listed as Homo sapiens)”, −0.02.

“POSTN_754 (IITGPEIKYTR; listed as Homo sapiens)” displayed a logFC.mEQ.over.Luc of 0.10. For “POSTN_790 (FIEGGDGHLFEDEEIKR; listed as Homo sapiens)” the value was −0.31; for “POSTN_807 (LLQGDTPVR; listed as Homo sapiens)”, −0.07. Under “PPP1R18_295 (LSETLTR; listed as Homo sapiens)” stands −0.08; under “PSAP_171 (F[Met(O)]ANIPLLLYPQDGPR; listed as Homo sapiens)”, 0.10.

For the substance “PXDN_1341 (SYQEDKPTKKTR; listed as Homo sapiens)”, the logFC.mEQ.over.Luc turned out to be 1.36. The substance “PXDN_1393 (QKTITDLR; listed as Homo sapiens)” yielded a logFC.mEQ.over.Luc of 0.10.
